The text below walks through data of patent US20140120095A1 (Boehringer Ingelheim, published 2014).

B1: recombinant mouse VEGF164 (ligand, UniProt Q00731-2 27-190, looked up)
chain: APTTEGEQKSHEVIKFMDVYQRSYCRPIETLVDIFQEYPDEIEYIFKPSCVPLMRCAGCCNDEALECVPTSESNITMQIMRIKPHQSQHIGEMSFLQHSRCECRPKKDRTKPENHCEPCSERRKHLFVQDPQTCKCSCKNTDSRCKARQLELNERTCRCDKPRR
modifications: biotinylated as the labelled ligand of the mVEGF164/mVEGFR2 AlphaScreen
notes: also called mVEGF164; rmVEGF164

One test addresses T1, mouse VEGFR2-huFc (mouse, UniProt P35918 20-762, limits assumed).
T1 construct: also called mVEGFR2-hFc; mVEGFR2-Fc
The test can be described thus: AlphaScreen, unlabelled mVEGF164 against biotinylated mVEGF164 on mVEGFR2-hFc. On the procedure: (§1) Finally, streptavidin donor beads (20 μg/ml) are added and after 1 hour of incubation fluorescence is measured on the Envision microplate reader.

Test [1] addresses T2, recombinant human DLL4 (human, UniProt Q9NR61 25-522).
T2 construct: also called rhDLL4; hDLL4
Nature of the test: Biacore off-rate, periplasmic extract.

The target in a further test is T3, recombinant mouse DLL4 (mouse, UniProt Q9JI71 27-532).
T3 construct: extracellular domain; also called rmDLL4; mDLL4
T3 sequence (Q9JI71 27-532): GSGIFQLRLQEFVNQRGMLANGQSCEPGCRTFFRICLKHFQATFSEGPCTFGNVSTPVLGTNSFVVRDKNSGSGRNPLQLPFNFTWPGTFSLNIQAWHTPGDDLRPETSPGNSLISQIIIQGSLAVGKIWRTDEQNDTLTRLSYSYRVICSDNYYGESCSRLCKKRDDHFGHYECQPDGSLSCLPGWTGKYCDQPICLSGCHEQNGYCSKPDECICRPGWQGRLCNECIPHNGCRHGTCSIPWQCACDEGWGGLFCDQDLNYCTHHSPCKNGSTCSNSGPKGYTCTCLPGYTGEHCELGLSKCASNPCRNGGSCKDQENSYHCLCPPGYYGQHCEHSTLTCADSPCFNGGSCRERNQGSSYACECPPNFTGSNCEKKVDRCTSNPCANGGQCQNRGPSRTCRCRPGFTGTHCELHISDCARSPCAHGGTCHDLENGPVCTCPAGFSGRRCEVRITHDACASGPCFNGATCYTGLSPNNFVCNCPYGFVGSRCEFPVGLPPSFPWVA
The test can be described thus: binding ELISA, coated rmDLL4. The procedure: (§2) In order to determine cross-reactivity to mouse DII4 a binding ELISA is performed. […] Wells are blocked with a casein solution (1% in PBS). VHHs are applied as dilution series and binding is detected using a mouse anti-myc (Roche) and an anti-mouse-AP conjugate (Sigma, St Louis, Mo., USA) (FIG. 7 A-H). As reference, binding to human DII4 is measured.

Test [2] has as its target T2, recombinant human DLL4. Nature of the test: binding ELISA, coated rhDLL4. On the procedure:
as §2

In test [3] the target is T4, human DLL4 overexpressed on cells (human, UniProt Q9NR61 27-685).
T4 construct: full length human DLL4 on CHO or HEK293 cells; also called CHO-hDLL4; CHO-hDII4
Nature of the test: competitive FMAT, hNotch1-Fc on CHO-hDLL4.

The target in a further test is T5, human DLL1 (human, UniProt O00548 18-545, limits assumed).
T5 construct: also called hDLL1
T5 sequence (looked up): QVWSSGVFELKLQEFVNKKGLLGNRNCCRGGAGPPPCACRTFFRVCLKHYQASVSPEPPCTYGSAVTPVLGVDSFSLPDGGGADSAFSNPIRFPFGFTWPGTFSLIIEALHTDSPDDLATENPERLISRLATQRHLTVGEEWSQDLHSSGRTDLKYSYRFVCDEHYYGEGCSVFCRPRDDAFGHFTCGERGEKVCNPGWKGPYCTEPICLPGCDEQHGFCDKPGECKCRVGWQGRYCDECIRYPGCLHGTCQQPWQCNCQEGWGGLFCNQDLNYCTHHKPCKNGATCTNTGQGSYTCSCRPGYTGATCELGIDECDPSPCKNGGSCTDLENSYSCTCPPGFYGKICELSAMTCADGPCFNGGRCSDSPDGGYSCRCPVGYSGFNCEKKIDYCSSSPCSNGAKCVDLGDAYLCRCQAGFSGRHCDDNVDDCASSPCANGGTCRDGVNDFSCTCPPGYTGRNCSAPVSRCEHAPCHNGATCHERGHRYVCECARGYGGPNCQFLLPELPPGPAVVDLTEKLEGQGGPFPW
Nature of the test: ELISA, coated human DLL1. The procedure: (§3) Absence of binding to homologous ligands human DLL1 and human Jagged-1 is assessed via solid phase binding assay (ELISA). In brief, human DLL1 (Alexis, San Diego, Calif., USA) and human Jagged-1 (Alexis, San Diego, Calif., USA) are coated overnight at 4° C. at 1 μg/mL in a 96-well MaxiSorp plate (Nunc, Wiesbaden, Germany). Wells are blocked with a casein solution (1% in PBS). VHHs are applied as dilution series and binding is detected using a mouse anti-myc (Roche) and an anti-mouse-AP conjugate (Sigma, St. Louis, Mo., USA).

In test [4] the target is T2, recombinant human DLL4. The test can be described thus: competition AlphaScreen, biot-hDLL4/hNotch1-Fc; partial inhibitor.
Test [5] addresses T2, recombinant human DLL4. The test can be described thus: hDLL4 ELISA screen, periplasmic extract.
The target in a further test is T6, human Jagged-1 (human, UniProt P78504 34-1067, limits assumed).
T6 construct: also called hJagged-1; hJAG1
The test can be described thus: ELISA, coated human Jagged-1. On the procedure:
as §3

Test [6] addresses T7, recombinant human VEGF165 (human, UniProt P15692-4 27-191, biotinylated in the competition assays).
T7 construct: Bought protein; also called hVEGF165; rhVEGF165
The test can be described thus: AlphaScreen, hVEGF165/hVEGFR1-Fc competition. The procedure:
(§4) Finally, streptavidin donor beads (20 μg/ml) are added and after 1 hour of incubation in the dark, fluorescence is measured on the Envision microplate reader.
Target sequence in this assay (P15692 other isoform, or with tags, fused parts or gaps): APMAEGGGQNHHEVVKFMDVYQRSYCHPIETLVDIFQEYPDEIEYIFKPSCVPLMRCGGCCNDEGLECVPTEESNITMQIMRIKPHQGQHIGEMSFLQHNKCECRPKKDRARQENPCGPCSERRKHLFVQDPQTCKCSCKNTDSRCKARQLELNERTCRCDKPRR

The target in test [7] is T7, recombinant human VEGF165. Nature of the test: AlphaScreen, hVEGF165/hVEGFR1-Fc competition. Also noted: % inhibition: concentration or dose not given beside the values. The procedure: as §4
Target sequence in this assay (P15692 other isoform, or with tags, fused parts or gaps): as above
Test [8] concerns the target T7, recombinant human VEGF165. Nature of the test: SPR Biacore, immobilised hVEGF165, two state reaction model.
Target sequence in this assay (P15692 other isoform, or with tags, fused parts or gaps): as above
The target in test [9] is T7, recombinant human VEGF165. Nature of the test: AlphaScreen, hVEGF165/hVEGFR2-Fc competition. On the procedure: as §4
Target sequence in this assay (P15692 other isoform, or with tags, fused parts or gaps): as above
In test [10] the target is T7, recombinant human VEGF165. The test can be described thus: AlphaScreen, hVEGF165/hVEGFR2-Fc competition. Also noted: % inhibition: concentration or dose not given beside the values. On the procedure: as §4
Test [11] deals with T7, recombinant human VEGF165. The test can be described thus: ELISA, hVEGF165/hVEGFR2-Fc competition. Also noted: % inhibition: concentration or dose not given beside the values.
For test [12], the target named is T7, recombinant human VEGF165. Nature of the test: AlphaScreen, hVEGF165/hVEGFR1-Fc competition, -HSA.
Test [13] has as its target T8, VEGF (used to stimulate HUVEC cells) (UniProt P15692-4 27-191, limits assumed). Nature of the test: cell-based or functional assay.
Test [14] has as its target B1. Nature of the test: AlphaScreen, mVEGF164/mVEGFR2-hFc competition. The procedure: as §1
Test [15] has as its target B1. The test can be described thus: binding ELISA, coated rmVEGF164. On the procedure: Cross-reactivity to mouse VEGF164 is determined using a binding ELISA. […] Wells are blocked with a casein solution (1% in PBS). […] A mouse VEGF164 reactive mAb is included as positive control.
In test [16] the target is T7, recombinant human VEGF165. The test can be described thus: AlphaScreen, hVEGF165/hVEGFR2-Fc competition, -HSA.
Test [17] concerns the target T7, recombinant human VEGF165. The test can be described thus: AlphaScreen, hVEGF165/hVEGFR2-Fc competition, -HSA. The source holds these as a separate data set.
For test [18], the target named is T7, recombinant human VEGF165. The test can be described thus: AlphaScreen, hVEGF165/hVEGFR2-Fc competition, +5 uM HSA.
The target in test [19] is T9, recombinant human VEGF121 (human, UniProt P15692-9 27-147).
T9 construct: also called rhVEGF121
T9 sequence (looked up): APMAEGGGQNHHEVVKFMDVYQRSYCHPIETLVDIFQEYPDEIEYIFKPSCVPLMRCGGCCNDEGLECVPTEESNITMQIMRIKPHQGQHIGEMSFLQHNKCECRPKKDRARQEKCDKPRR
The test can be described thus: binding ELISA, coated rhVEGF121. The procedure:
Binding to recombinant human VEGF121 is assessed via a solid phase binding ELISA. […] Wells are blocked with a casein solution (1% in PBS).

The target of test [20] is T8, VEGF (used to stimulate HUVEC cells). Nature of the test: cell-based or functional assay. This is another data set of the same source.
Test [21] deals with T7, recombinant human VEGF165. Nature of the test: ELISA, hVEGF165/hVEGFR1-Fc competition. Details: % inhibition: concentration or dose not given beside the values.
Target sequence in this assay (P15692 other isoform, or with tags, fused parts or gaps): as the sequence (P15692 other isoform, or with tags, fused parts or gaps) above
The target in test [22] is T7, recombinant human VEGF165. Nature of the test: binding ELISA, coated rhVEGF165.
Target sequence in this assay (P15692 other isoform, or with tags, fused parts or gaps): as the sequence (P15692 other isoform, or with tags, fused parts or gaps) above

T8 sequence (P15692 other isoform, or with tags, fused parts or gaps limits assumed): as the sequence (P15692 other isoform, or with tags, fused parts or gaps) above
T1 sequence (P35918 20-762 limits assumed): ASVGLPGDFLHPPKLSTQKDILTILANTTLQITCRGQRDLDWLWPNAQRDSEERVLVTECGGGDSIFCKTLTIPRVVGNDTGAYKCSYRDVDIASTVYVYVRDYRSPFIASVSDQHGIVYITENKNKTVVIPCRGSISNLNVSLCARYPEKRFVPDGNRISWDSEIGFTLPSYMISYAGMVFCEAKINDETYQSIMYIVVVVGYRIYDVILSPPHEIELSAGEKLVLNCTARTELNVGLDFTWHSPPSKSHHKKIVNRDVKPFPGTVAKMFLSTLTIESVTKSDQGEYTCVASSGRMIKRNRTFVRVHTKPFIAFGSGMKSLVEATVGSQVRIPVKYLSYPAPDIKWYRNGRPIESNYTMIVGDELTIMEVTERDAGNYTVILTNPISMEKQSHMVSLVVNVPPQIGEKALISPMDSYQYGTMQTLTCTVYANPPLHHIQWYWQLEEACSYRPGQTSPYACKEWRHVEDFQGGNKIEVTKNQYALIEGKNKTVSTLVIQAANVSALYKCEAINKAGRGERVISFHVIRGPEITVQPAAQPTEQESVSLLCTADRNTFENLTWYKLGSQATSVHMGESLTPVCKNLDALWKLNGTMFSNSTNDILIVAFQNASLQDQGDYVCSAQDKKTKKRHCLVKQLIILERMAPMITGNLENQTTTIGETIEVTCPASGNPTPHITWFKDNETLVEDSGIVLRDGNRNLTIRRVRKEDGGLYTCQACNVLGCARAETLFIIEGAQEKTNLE

The molecule B1 showed an IC50 with mouse VEGFR2-huFc of 0.05 nM.

B2: DLLBII19F04 (VHH)
VHH: EVQLVESGGGLVQAEGSLRLSCAASGSTFSTYAMAWYRQAPGKQRELVAGISFDGSTHYAESVKGRFTISRDDAKNTVSLQMNSLKPEDAAVYYCYSVHPSTGFGSWGQGTQVTVSS
For the molecule B2, in the test with recombinant human DLL4 [1], the koff came to 0.0011 s⁻¹. Also, the EC50 turned out to be 0.8 nM with recombinant mouse DLL4 and 0.9 nM in the test with recombinant human DLL4 [2]. Further, the IC50 in [3] came to 33 nM; with recombinant human DLL4 [4] it was 0.05 nM. Moreover, the binding result in the test with human DLL1 and in the test with human Jagged-1 was “no binding” each time. For the same molecule, the “% inh” value with recombinant human DLL4 [5] turned out to be 98%.

B3: VEGFBII022 (VHH, not shown: small tags and cut ends)
chain: EVQLVESGGGLVQTGDSLRLSCEVSGRTFSSYSMGWFRQAQGKEREFVVAISKGGYKYDSVSLEGRFTISKDNAKNTVYLQINSLKPEDTAVYYCASSRAYGSSRLRLADTYEYWGQGTQVTVSSGGGGSGGGSEVQLVESGGGLVQPGGSLRLSCVASGIRFMSMAWYRQAPGKHRELVARISSGGTTAYVDSVKGRFTISRDNSKNTVYLQMNSLKAEDTAVYYCNTFSSRPNPWGAGTQVTVSS
notes: Bivalent (heterodimeric) anti-VEGF VHH; also called VEGFBII23B04-9GS-5B05
On to B3, for which the “% inhibition” value was found to be 100% in [6]; 98% in [7]; 100% in [10]; 100% in test [11]; 89% in test [21]. The half-maximal inhibitory concentration (IC50) was determined as 0.008 nM in test [6]; 0.009 nM in test [7]; 0.007 nM in test [9]; 0.007 nM in test [10]; 0.164 nM in [11]; 0.07 nM in test [12]. Further, the IC50 in test [14] amounted to 108 nM; in [16], 0.05 nM; in test [17] it was 0.017 nM; in test [18] it was 0.03 nM; in test [21] it was 0.225 nM. Besides, the dissociation constant Kd in test [8] stood at 0.14 nM. The ka1 in [8] came to 1.2e+06 M⁻¹ s⁻¹. The ka2 in test [8] came to 0.014 s⁻¹. The kd1 in test [8] was found to be 0.0091 s⁻¹. Besides, in test [8], the kd2 was found to be 0.00026 s⁻¹. Moreover, the “% inh” value came out at 87% in test [12], 100% in test [16] and 100% in [17]. The “% inhibition, VEGF HUVEC proliferation assay” value in test [13] was found to be 100%. Also, in [13], the “IC50, VEGF HUVEC proliferation assay” value came out at 0.34 nM. For the same molecule, the EC50 in [15] was 0.464 nM; in [19], 0.54 nM; in test [22] it was 0.224 nM. In addition, in test [20], the “% inhibition, VEGF HUVEC Erk phosphorylation assay” value turned out to be 94%. For the same molecule, the “IC50, VEGF HUVEC Erk phosphorylation assay” value in test [20] worked out at 0.18 nM.
